We go through eleven molecules from patent publication US20140271457A1 (AbbVie / Abbott, published 2014).

The target in this assay is Recombinant Human TNF-α/TNFSF1A (human, UniProt P01375 77-233). As to the kind of experiment: cell-based or functional assay.
Sequence of Recombinant Human TNF-α/TNFSF1A (P01375 77-233 limits assumed): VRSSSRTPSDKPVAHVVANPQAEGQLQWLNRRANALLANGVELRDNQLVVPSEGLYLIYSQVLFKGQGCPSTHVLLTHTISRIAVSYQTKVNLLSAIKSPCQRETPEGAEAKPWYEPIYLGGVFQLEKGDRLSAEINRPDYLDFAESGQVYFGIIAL

B1: DVD3088 (bispecific antibody, IgG1)
VH: EVQLVQSGAEVKKPGASVKVSCKASGYTFTTYGVSWVRQAPGQGLEWMGEIYPGNYNTYYNEKFRGRVTMTTDTSTSTAYMELRSLRSDDTAVYYCARWRTSYFSDYGYFDYWGQGTTVTVSSGGGGSGGGGSEVQLVESGGGLVQPGGSLRLSCAASGFTFSNYGVTWVRQAPGKGLEWVSMIWADGSTHYASSVKGRFTISRDNSKNTLYLQMNSLRAEDTAVYYCAREWQHGPVAYWGQGTLVTVSS
VL: DVVMTQSPLSLPVTLGQPASISCRSSQSLVHSHGNTYLHWYQQRPGQSPRLLIYTVSNRFSGVPDRFSGSGSGTDFTLKISRVEAEDVGVYYCSQSTHVPYTFGGGTKVEIKRGGSGGGGSGDIQMTQSPSSLSASVGDRVTITCRASQLVSSAVAWYQQKPGKAPKLLIYWASARHTGVPSRFSGSGSGTDFTLTISSLQPEDFATYYCQQHYKTPFTFGQGTKLEIKR
For the molecule B1, the “C-Terminal VD huTNFα Neutralization Assay IC50” value is 0.472 nM.

B2: DVD3098 (bispecific antibody, IgG1)
VH: EVQLVQSGAEVKKPGASVKVSCKASGYTFTTYGVSWVRQAPGQGLEWMGEIYPGNYNTYYNEKFRGRVTMTTDTSTSTAYMELRSLRSDDTAVYYCARWRTSYFSDYGYFDYWGQGTTVTVSSGGGGSGGGGSEVQLVESGGGLVQPGGSLRLSCAASGFTFSNYGVEWVRQAPGKGLEWVSGIWADGSTHYADTVKSRFTISRDNSKNTLYLQMNSLRAEDTAVYYCAREWQHGPVAYWGQGTLVTVSS
VL: DVVMTQSPLSLPVTLGQPASISCRSSQSLVHSHGNTYLHWYQQRPGQSPRLLIYTVSNRFSGVPDRFSGSGSGTDFTLKISRVEAEDVGVYYCSQSTHVPYTFGGGTKVEIKRGGSGGGGSGDIQMTQSPSSLSASVGDRVTITCKASQLVSSAVAWYQQKPGKAPKLLIYWASTLHTGVPSRFSGSGSGTDFTLTISSLQPEDFATYYCQQHYRTPFTFGQGTKLEIKR
As to B2, the “N-Terminal VD huTNFα Neutralization Assay IC50” value amounted to 0.012 nM.

B3: DVD3089 (bispecific antibody, IgG1)
VH: EVQLVQSGAEVKKPGASVKVSCKASGYTFTTYGVSWVRQAPGQGLEWMGEIYPGNYNTYYNEKFRGRVTMTTDTSTSTAYMELRSLRSDDTAVYYCARWRTSYFSDYGYFDYWGQGTTVTVSSASTKGPEVQLVESGGGLVQPGGSLRLSCAASGFTFSNYGVTWVRQAPGKGLEWVSMIWADGSTHYASSVKGRFTISRDNSKNTLYLQMNSLRAEDTAVYYCAREWQHGPVAYWGQGTLVTVSS
VL: DVVMTQSPLSLPVTLGQPASISCRSSQSLVHSHGNTYLHWYQQRPGQSPRLLIYTVSNRFSGVPDRFSGSGSGTDFTLKISRVEAEDVGVYYCSQSTHVPYTFGGGTKVEIKRTVAAPDIQMTQSPSSLSASVGDRVTITCRASQLVSSAVAWYQQKPGKAPKLLIYWASARHTGVPSRFSGSGSGTDFTLTISSLQPEDFATYYCQQHYKTPFTFGQGTKLEIKR
With B3, the “C-Terminal VD huTNFα Neutralization Assay IC50” value worked out at 0.52 nM.

B4: DVD3091 (bispecific antibody, IgG1)
VH: EVQLVQSGAEVKKPGASVKVSCKASGYTFTTYGVSWVRQAPGQGLEWMGEIYPGNYNTYYNEKFRGRVTMTTDTSTSTAYMELRSLRSDDTAVYYCARWRTSYFSDYGYFDYWGQGTTVTVSSASTKGPEVQLVESGGGLVQPGGSLRLSCAASGFTFSNYGVTWVRQAPGKGLEWVSMIWADGSTHYASSVKGRFTISRDNSKNTLYLQMNSLRAEDTAVYYCAREWQHGPVAYWGQGTLVTVSS
VL: DVVMTQSPLSLPVTLGQPASISCRSSQSLVHSHGNTYLHWYQQRPGQSPRLLIYTVSNRFSGVPDRFSGSGSGTDFTLKISRVEAEDVGVYYCSQSTHVPYTFGGGTKVEIKRTVAAPSVFIFPPDIQMTQSPSSLSASVGDRVTITCRASQLVSSAVAWYQQKPGKAPKLLIYWASARHTGVPSRFSGSGSGTDFTLTISSLQPEDFATYYCQQHYKTPFTFGQGTKLEIKR
For B4, the “C-Terminal VD huTNFα Neutralization Assay IC50” value came out at 0.192 nM.

B5: DVD3016 (bispecific antibody, IgG1)
VH: EVTLRESGPGLVKPTQTLTLTCTLYGFSLSTSDMGVDWIRQPPGKGLEWLAHIWWDDVKRYNPALKSRLTISKDTSKNQVVLKLTSVDPVDTATYYCARTVSSGYIYYAMDYWGQGTLVTVSSASTKGPEVQLVQSGAEVKKPGASVKVSCKASGYTFNNYGIIWVRQAPGQGLEWMGWINTYTGKPTYAQKFQGRVTMTTDTSTSTAYMELSSLRSEDTAVYYCARKLFNTVAVTDNAMDYWGQGTTVTVSS
VL: DIQMTQSPSSLSASVGDRVTISCRASQDIRNYLNWYQQKPGKAPKLLIFYTSKLHSGVPSRFSGSGSGTDYTLTISSLQPEDIATYYCQQGLTPPLTFGGGTKVEIKRTVAAPSVFIFPPDIQMTQSPSSLSASVGDRVTITCRASQDIENYLNWYQQKPGKAPKLLIYYTSRLQSGVPSRFSGSGSGTDFTLTISSLQPEDFATYFCQQGNTQPPTFGQGTKLEIKR
As to B5, the “C-Terminal VD huTNFα Neutralization Assay IC50” value stood at 0.148 nM.

B6: DVD2792 (bispecific antibody, IgG1)
VH: EVTLRESGPGLVKPTQTLTLTCTLYGFSLSTSDMGVDWIRQPPGKGLEWLAHIWWDDVKRYNPALKSRLTISKDTSKNQVVLKLTSVDPVDTATYYCARTVSSGYIYYAMDYWGQGTLVTVSSASTKGPSVFPLAPEVQLVQSGAEVKKPGASVKVSCKASGYTFANYGIIWVRQAPGQGLEWMGWINTYTGKPTYAQKFQGRVTMTTDTSTSTAYMELSSLRSEDTAVYYCARKLFTTMDVTDNAMDYWGQGTTVTVSS
VL: DIQMTQSPSSLSASVGDRVTISCRASQDIRNYLNWYQQKPGKAPKLLIFYTSKLHSGVPSRFSGSGSGTDYTLTISSLQPEDIATYYCQQGLTPPLTFGGGTKVEIKRTVAAPDIQMTQSPSSLSASVGDRVTITCRASQDISQYLNWYQQKPGKAPKLLIYYTSRLQSGVPSRFSGSGSGTDFTLTISSLQPEDFATYFCQQGNTWPPTFGQGTKLEIKR
Consider B6, for which the “C-Terminal VD huTNFα Neutralization Assay IC50” value stood at 0.136 nM.

B7: DVD3014 (bispecific antibody, IgG1)
VH: EVTLRESGPGLVKPTQTLTLTCTLYGFSLSTSDMGVDWIRQPPGKGLEWLAHIWWDDVKRYNPALKSRLTISKDTSKNQVVLKLTSVDPVDTATYYCARTVSSGYIYYAMDYWGQGTLVTVSSASTKGPEVQLVQSGAEVKKPGASVKVSCKASGYTFNNYGIIWVRQAPGQGLEWMGWINTYTGKPTYAQKFQGRVTMTTDTSTSTAYMELSSLRSEDTAVYYCARKLFNTVAVTDNAMDYWGQGTTVTVSS
VL: DIQMTQSPSSLSASVGDRVTISCRASQDIRNYLNWYQQKPGKAPKLLIFYTSKLHSGVPSRFSGSGSGTDYTLTISSLQPEDIATYYCQQGLTPPLTFGGGTKVEIKRTVAAPDIQMTQSPSSLSASVGDRVTITCRASQDIENYLNWYQQKPGKAPKLLIYYTSRLQSGVPSRFSGSGSGTDFTLTISSLQPEDFATYFCQQGNTQPPTFGQGTKLEIKR
Take B7: the “C-Terminal VD huTNFα Neutralization Assay IC50” value came out at 0.49 nM.

B8: DVD3017 (bispecific antibody, IgG1)
VH: EVTLRESGPGLVKPTQTLTLTCTLYGFSLSTSDMGVDWIRQPPGKGLEWLAHIWWDDVKRYNPALKSRLTISKDTSKNQVVLKLTSVDPVDTATYYCARTVSSGYIYYAMDYWGQGTLVTVSSASTKGPSVFPLAPEVQLVQSGAEVKKPGASVKVSCKASGYTFNNYGIIWVRQAPGQGLEWMGWINTYTGKPTYAQKFQGRVTMTTDTSTSTAYMELSSLRSEDTAVYYCARKLFNTVAVTDNAMDYWGQGTTVTVSS
VL: DIQMTQSPSSLSASVGDRVTISCRASQDIRNYLNWYQQKPGKAPKLLIFYTSKLHSGVPSRFSGSGSGTDYTLTISSLQPEDIATYYCQQGLTPPLTFGGGTKVEIKRTVAAPDIQMTQSPSSLSASVGDRVTITCRASQDIENYLNWYQQKPGKAPKLLIYYTSRLQSGVPSRFSGSGSGTDFTLTISSLQPEDFATYFCQQGNTQPPTFGQGTKLEIKR
Take B8: the “C-Terminal VD huTNFα Neutralization Assay IC50” value amounted to 0.234 nM.

B9: DVD3013 (bispecific antibody, IgG1)
VH: EVTLRESGPGLVKPTQTLTLTCTLYGFSLSTSDMGVDWIRQPPGKGLEWLAHIWWDDVKRYNPALKSRLTISKDTSKNQVVLKLTSVDPVDTATYYCARTVSSGYIYYAMDYWGQGTLVTVSSGGGGSGGGGSEVQLVQSGAEVKKPGASVKVSCKASGYTFNNYGIIWVRQAPGQGLEWMGWINTYTGKPTYAQKFQGRVTMTTDTSTSTAYMELSSLRSEDTAVYYCARKLFNTVAVTDNAMDYWGQGTTVTVSS
VL: DIQMTQSPSSLSASVGDRVTISCRASQDIRNYLNWYQQKPGKAPKLLIFYTSKLHSGVPSRFSGSGSGTDYTLTISSLQPEDIATYYCQQGLTPPLTFGGGTKVEIKRGGSGGGGSGDIQMTQSPSSLSASVGDRVTITCRASQDIENYLNWYQQKPGKAPKLLIYYTSRLQSGVPSRFSGSGSGTDFTLTISSLQPEDFATYFCQQGNTQPPTFGQGTKLEIKR
Take B9: the “C-Terminal VD huTNFα Neutralization Assay IC50” value was found to be 0.229 nM.

B10: DVD3012 (bispecific antibody, IgG1)
VH: EVQLVQSGAEVKKPGASVKVSCKASGYTFNNYGIIWVRQAPGQGLEWMGWINTYTGKPTYAQKFQGRVTMTTDTSTSTAYMELSSLRSEDTAVYYCARKLFNTVAVTDNAMDYWGQGTTVTVSSASTKGPSVFPLAPEVTLRESGPGLVKPTQTLTLTCTLYGFSLSTSDMGVDWIRQPPGKGLEWLAHIWWDDVKRYNPALKSRLTISKDTSKNQVVLKLTSVDPVDTATYYCARTVSSGYIYYAMDYWGQGTLVTVSS
VL: DIQMTQSPSSLSASVGDRVTITCRASQDIENYLNWYQQKPGKAPKLLIYYTSRLQSGVPSRFSGSGSGTDFTLTISSLQPEDFATYFCQQGNTQPPTFGQGTKLEIKRTVAAPDIQMTQSPSSLSASVGDRVTISCRASQDIRNYLNWYQQKPGKAPKLLIFYTSKLHSGVPSRFSGSGSGTDYTLTISSLQPEDIATYYCQQGLTPPLTFGGGTKVEIKR
With B10, the “N-Terminal VD huTNFα Neutralization Assay IC50” value worked out at 0.034 nM.

B11: DVD3011 (bispecific antibody, IgG1)
VH: EVQLVQSGAEVKKPGASVKVSCKASGYTFNNYGIIWVRQAPGQGLEWMGWINTYTGKPTYAQKFQGRVTMTTDTSTSTAYMELSSLRSEDTAVYYCARKLFNTVAVTDNAMDYWGQGTTVTVSSASTKGPEVTLRESGPGLVKPTQTLTLTCTLYGFSLSTSDMGVDWIRQPPGKGLEWLAHIWWDDVKRYNPALKSRLTISKDTSKNQVVLKLTSVDPVDTATYYCARTVSSGYIYYAMDYWGQGTLVTVSS
VL: DIQMTQSPSSLSASVGDRVTITCRASQDIENYLNWYQQKPGKAPKLLIYYTSRLQSGVPSRFSGSGSGTDFTLTISSLQPEDFATYFCQQGNTQPPTFGQGTKLEIKRTVAAPSVFIFPPDIQMTQSPSSLSASVGDRVTISCRASQDIRNYLNWYQQKPGKAPKLLIFYTSKLHSGVPSRFSGSGSGTDYTLTISSLQPEDIATYYCQQGLTPPLTFGGGTKVEIKR
As for B11, the “N-Terminal VD huTNFα Neutralization Assay IC50” value came to 0.024 nM.
